This note sets out measurements from PMC7181697, “Molecular basis for assembly of the shieldin complex and its implications for NHEJ” (Nature Communications, 2020).

Conditions in all cases: both partners purified
Assay [1] addresses T1, REV7^K44A-SHLD3(1–82)-REV7^K129A (human, UniProt Q9UI95 1-211; Q6ZNX1 1-82; Q9UI95 1-211, K44A | K129A).
T1 construct: REV7 (MAD2B, MAD2L2), human, full length; the C-REV7 of the dimer; SHLD3, human, residues 1-82; cloned without His-tag; the O-REV7 of the dimer; also called K44A-1–82 + K129A; reconstituted conformational dimer; source: reconstituted from purified REV7^K44A-SHLD3(1–82) and purified REV7^K129A (both E. coli BL21(DE3)); copies: + +
Put plainly: SEC; Superdex 200 Increase 10/300 GL, 20 mM Tris/HCl pH 8.0, 150 mM NaCl, 1% glycerol, 1 mM TCEP; proteins mixed and incubated 10 min on ice; 0.5 ml fractions on SDS-PAGE, Coomassie. For orientation: In gel filtration, larger molecules generally elute earlier.

Assay [2] has as its target T2, REV7^E35A-SHLD3(1–82)-REV7^K129A (human, UniProt Q9UI95 1-211; Q6ZNX1 1-82; Q9UI95 1-211, E35A | K129A).
T2 construct: REV7 (MAD2B, MAD2L2), human, full length; the C-REV7 of the dimer; SHLD3, human, residues 1-82; cloned without His-tag; the O-REV7 of the dimer; also called E35A-1–82 + K129A; reconstituted conformational dimer; source: reconstituted from purified REV7^E35A-SHLD3(1–82) and purified REV7^K129A (both E. coli BL21(DE3)); copies: + +
Described as above.

Assay [3] deals with T3, REV7^K44A-SHLD3(1–82)^F38A (human, UniProt Q9UI95 1-211; Q6ZNX1 1-82, K44A | F38A).
T3 construct: REV7 (MAD2B, MAD2L2), human, full length; SHLD3, human, residues 1-82; cloned without His-tag; source: E. coli BL21(DE3), co-expressed (pETduet), purified (Ni-IDA, SEC)
The assay can be described thus: ITC; ITC200, 25 °C, 20 mM Tris pH 8.0, 150 mM NaCl, 1% glycerol, 1 mM TCEP; one set of sites model.

Assay [4] has as its target T4, REV7^K44A-SHLD3(1–82)^FIPWFP/AIAAAA (human, UniProt Q9UI95 1-211; Q6ZNX1 1-82, K44A | FIPWFP/AIAAAA).
T4 construct: REV7 (MAD2B, MAD2L2), human, full length; SHLD3, human, residues 1-82; the FXPWFP motif stands at 38-43; cloned without His-tag; also called REV7^K44A-SHLD3(1–82)^5A; source: E. coli BL21(DE3), co-expressed (pETduet), purified (Ni-IDA, SEC)
The assay is described as above.

The target in the next assay is T5, REV7^K44A-SHLD3(45–82) (human, UniProt Q9UI95 1-211; Q6ZNX1 45-82, K44A).
T5 construct: REV7 (MAD2B, MAD2L2), human, full length; SHLD3, human, residues 45-82; cloned without His-tag; source: E. coli BL21(DE3), co-expressed (pETduet), purified (Ni-IDA, SEC)
Described as above.

A further assay addresses T6, REV7^K129A (human, UniProt Q9UI95 1-211, K129A).
T6 construct: REV7 (MAD2B, MAD2L2), human, full length; also called O-REV7 (as used in the ITC and SEC experiments); source: E. coli BL21(DE3), purified (Ni-IDA, SEC); alone or co-expressed with SHLD3(1-82)
The description is as above.

For assay [5], the target named is T2, REV7^E35A-SHLD3(1–82)-REV7^K129A. The description is as above.
The next assay concerns the target T7, MBP-REV7^K129A (human, UniProt Q9UI95 1-211, K129A).
T7 construct: REV7 (MAD2B, MAD2L2), human; The cloning of this construct is not described in the methods; also called O-REV7; source: E. coli BL21(DE3), purified (Ni-IDA, SEC)
The assay can be described thus: SEC; Superdex 200 Increase 10/300 GL, 20 mM Tris/HCl pH 8.0, 150 mM NaCl, 1% glycerol, 1 mM TCEP; proteins mixed and incubated 10 min on ice; 0.5 ml fractions on SDS-PAGE, Coomassie.

Assay [6] deals with T8, REV7 (full length, wild type) (human, UniProt Q9UI95 1-211).
T8 construct: REV7 (MAD2B, MAD2L2), human, full length; Two copies (closed C-REV7 and open O-REV7) stand in the crystal structure 6KTO; also called REV7^WT; MAD2B; source: E. coli BL21(DE3), purified (Ni-IDA, SEC); alone or co-expressed with SHLD3 and SHLD2 truncations
The assay can be described thus: ITC; ITC200, 25 °C, 20 mM Tris pH 8.0, 150 mM NaCl, 1% glycerol, 1 mM TCEP; one set of sites model. (ITC needs no label: the signal is the heat of the interaction.)

The next assay has as its target T9, REV7^Y63A (human, UniProt Q9UI95 1-211, Y63A).
T9 construct: REV7 (MAD2B, MAD2L2), human, full length; source: E. coli BL21(DE3), purified (Ni-IDA, SEC); alone or co-expressed with SHLD3(1-82)
The assay is described as above.

The next assay deals with T10, REV7^W171A (human, UniProt Q9UI95 1-211, W171A).
T10 construct: REV7 (MAD2B, MAD2L2), human, full length; source: E. coli BL21(DE3), purified (Ni-IDA, SEC); alone or co-expressed with SHLD3(1-82)
Described as above.

T2 sequence (Q9UI95 whole entry E35A, chain 1 of 2, the tested form may be a part): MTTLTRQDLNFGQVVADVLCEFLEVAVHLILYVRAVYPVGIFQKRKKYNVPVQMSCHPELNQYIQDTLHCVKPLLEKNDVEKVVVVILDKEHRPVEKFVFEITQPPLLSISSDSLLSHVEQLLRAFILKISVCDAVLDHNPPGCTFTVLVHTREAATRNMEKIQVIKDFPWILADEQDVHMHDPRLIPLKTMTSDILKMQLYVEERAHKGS
T2 sequence (Q9UI95 whole entry K129A, chain 3 of 2, the tested form may be a part): as the sequence (Q9UI95 whole entry E35A, chain 1 of 2, the tested form may be a part) above, with A35E, K129A counted along it
T9 sequence (Q9UI95 whole entry Y63A): as the sequence (Q9UI95 whole entry E35A, chain 1 of 2, the tested form may be a part) above, with A35E, Y63A counted along it
T7 sequence (Q9UI95 whole entry K129A): as the sequence (Q9UI95 whole entry E35A, chain 1 of 2, the tested form may be a part) above, with A35E, K129A counted along it
T6 sequence (Q9UI95 whole entry K129A): as the sequence (Q9UI95 whole entry E35A, chain 1 of 2, the tested form may be a part) above, with A35E, K129A counted along it
T8 sequence (Q9UI95 whole entry, the tested form may be a part): as the sequence (Q9UI95 whole entry E35A, chain 1 of 2, the tested form may be a part) above, with A35E counted along it
T3 sequence (Q9UI95 whole entry K44A, the tested form may be a part, one chain of several): as the sequence (Q9UI95 whole entry E35A, chain 1 of 2, the tested form may be a part) above, with A35E, K44A counted along it
T1 sequence (Q9UI95 whole entry K44A, chain 1 of 2, the tested form may be a part): as the sequence (Q9UI95 whole entry E35A, chain 1 of 2, the tested form may be a part) above, with A35E, K44A counted along it
T1 sequence (Q9UI95 whole entry K129A, chain 3 of 2, the tested form may be a part): as the sequence (Q9UI95 whole entry E35A, chain 1 of 2, the tested form may be a part) above, with A35E, K129A counted along it
T5 sequence (Q9UI95 whole entry K44A, the tested form may be a part, one chain of several): as the sequence (Q9UI95 whole entry E35A, chain 1 of 2, the tested form may be a part) above, with A35E, K44A counted along it
T4 sequence (Q9UI95 whole entry K44A, the tested form may be a part, one chain of several): as the sequence (Q9UI95 whole entry E35A, chain 1 of 2, the tested form may be a part) above, with A35E, K44A counted along it
T10 sequence (Q9UI95 whole entry W171A): as the sequence (Q9UI95 whole entry E35A, chain 1 of 2, the tested form may be a part) above, with A35E, W171A counted along it

B1: MBP-SHLD2(1–60) (domain or fragment, human, UniProt Q86V20 1-60, looked up)
chain: MSGGSQVHIFWGAPIAPLKITVSEDTASLMSVADPWKKIQLLYSQHSLYLKDEKQHKNLE
notes: SHLD2, human, residues 1-60; Modified pET28a(+) with His6-MBP tag; also called MBP-1–60; source: E. coli BL21(DE3), purified (Ni-IDA, SEC); not shown: MBP, N-terminal, kept
Consider B1, for which the binding result in [1] and in assay [2] was “binds” throughout.

B2: cREV1 CTD (chimeric REV1 CTD: POL κ RIR fused to the N-terminus of REV1 CTD) (other, UniProt Q9UBT6 562-577, looked up)
chain: SHKKSFFDKKRSERKWGLSSLQSDPAGCVRPPAPNLAGAVEFNDVKTLLREWITTISDPMEEDILQVVKYCTDLIEEKDLEKLDLVIKYMKRLMQQSVESVWNMAFDFILDNVQVVLQQTYGSTLKVT
notes: source: E. coli BL21(DE3), purified (Ni-IDA, SEC)
On to B2, for which the Kd came to 6500 nM in assay [3], 1100 nM in [4] and 1400 nM with REV7^K44A-SHLD3(45–82).

B3: REV3(1847-1906) (domain or fragment, human, UniProt O60673 1847-1906, looked up)
chain: MLTPTPDSSPRSTSSPSQSKNGSFTPRTANILKPLMSPPSREEIMATLLDHDLSETIYQE
notes: amplified from cDNA of Jurkat cells; The methods name two vectors for REV3 truncations (His6-MBP and C-terminal His6); also called RBM1 of REV3; source: E. coli BL21(DE3), purified (Ni-IDA, SEC)
For B3, the binding result in the assay with REV7^K129A was “binds”. The same molecule had a Kd in assay [5] of 46 nM.

B4: MBP-REV3(1847-1906) (domain or fragment, human, UniProt O60673 1847-1906, looked up)
chain: MLTPTPDSSPRSTSSPSQSKNGSFTPRTANILKPLMSPPSREEIMATLLDHDLSETIYQE
notes: Modified pET28a(+) with His6-MBP tag; source: E. coli BL21(DE3), purified (Ni-IDA, SEC)
In the case of B4, in the assay with MBP-REV7^K129A, the binding result is listed as “binds”.

B5: SHLD3(1–82) with C-terminal His6-tag (domain or fragment, human, UniProt Q6ZNX1 1-82, looked up)
chain: MTTEVILHYRPCESDPTQLPKIAEKAIQDFPTRPLSRFIPWFPYDGSKLPLRPKRSPPVISEEAAEDVKQYLTISEHDAKSH
notes: SHLD3, human, residues 1-82; SHLD3(1-82) expressed alone for biochemical studies (pET28a(+)); source: E. coli BL21(DE3), purified (Ni-IDA, SEC)
For B5, the Kd in assay [6] is ~130 nM; in the assay with REV7^Y63A, ~200 nM; with REV7^W171A, ~200 nM.

As a reminder, the Kd is the concentration at which binding is half-saturated. A higher Kd goes with weaker binding.
